Measured values as given in patent US20220119464A1.

Biological target: biotinylated D-form of SARS-CoV-2 HR1 (SARS-CoV-2)

D-form of EK1 (peptide)
Kd: 32 nM
